According to PMC11077089, “Molecular basis of A. thaliana KEOPS complex in biosynthesizing tRNA t6A”:

Columns and labels:
[1] = molecular target: T1, KAE1 mutant-2;BUD32;CGI121;PCC1 (Arabidopsis thaliana;Arabidopsis …, UniProt O49653;Q94K14;Q6NMZ4;Q8GWD7 1-353;1-226;1-172;1-96, G43E;F44R;L45K;P46R;R47D;E48K|||); test: EMSA; conflicts with MST; MST: 20 mM PBS pH 7.5, 300 mM NaCl, 0.05% Tween 20, 25 C, 50 nM RNA; EMSA: 20 mM Tris-HCl pH 7.5, 300 mM NaCl, 5 mM b-mercaptoethanol, 20% glycerol, agarose gel in Tris-glycine pH 8.0 (8.5 for FAM-RNA), 4 C; conditions: protein: recombinant;recombinant;recombinant;recombinant; tags: ;none (6His on partner CGI121);6His (C-term);6His (C-term); chain copies: 2;2;2;2; label: 5' 6-FAM; tRNA cloverleaf
T1 sequence 1: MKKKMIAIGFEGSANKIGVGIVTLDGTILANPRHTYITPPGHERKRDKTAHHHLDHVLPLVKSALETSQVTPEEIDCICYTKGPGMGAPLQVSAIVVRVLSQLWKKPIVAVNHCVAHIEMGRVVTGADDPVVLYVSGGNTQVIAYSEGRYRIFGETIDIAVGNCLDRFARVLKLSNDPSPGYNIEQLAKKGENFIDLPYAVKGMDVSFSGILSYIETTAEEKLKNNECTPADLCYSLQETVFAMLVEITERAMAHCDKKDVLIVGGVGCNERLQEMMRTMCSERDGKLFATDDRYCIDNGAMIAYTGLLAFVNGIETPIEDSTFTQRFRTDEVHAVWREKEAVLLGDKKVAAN
T1 sequence 2: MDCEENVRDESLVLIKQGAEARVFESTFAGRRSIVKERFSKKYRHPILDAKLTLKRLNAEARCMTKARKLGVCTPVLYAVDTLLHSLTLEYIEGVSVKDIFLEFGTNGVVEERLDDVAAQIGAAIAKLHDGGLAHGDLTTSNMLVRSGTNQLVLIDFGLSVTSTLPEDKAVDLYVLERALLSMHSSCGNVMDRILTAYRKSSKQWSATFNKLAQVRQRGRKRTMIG
T1 sequence 3: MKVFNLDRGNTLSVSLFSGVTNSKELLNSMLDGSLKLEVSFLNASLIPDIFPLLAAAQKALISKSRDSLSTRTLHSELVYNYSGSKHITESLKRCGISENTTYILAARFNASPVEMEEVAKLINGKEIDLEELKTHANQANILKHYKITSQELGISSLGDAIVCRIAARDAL
T1 sequence 4: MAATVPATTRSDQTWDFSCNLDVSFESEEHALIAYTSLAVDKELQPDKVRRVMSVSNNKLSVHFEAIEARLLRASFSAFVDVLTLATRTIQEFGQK

KAE1;BUD32;CGI121;PCC1 = molecular target: T2, KAE1;BUD32;CGI121;PCC1 (Arabidopsis thaliana;Arabidopsis …, UniProt O49653;Q94K14;Q6NMZ4;Q8GWD7 1-353;1-226;1-172;1-96, |||); test: MST; KEOPS dimer; MST: 20 mM PBS pH 7.5, 300 mM NaCl, 0.05% Tween 20, 25 C, 50 nM RNA; EMSA: 20 mM Tris-HCl pH 7.5, 300 mM NaCl, 5 mM b-mercaptoethanol, 20% glycerol, agarose gel in Tris-glycine pH 8.0 (8.5 for FAM-RNA), 4 C; conditions: protein: recombinant;recombinant;recombinant;recombinant; tags: none (6His on partner PCC1);none (6His on partner CGI121);6His (C-term);6His (C-term); chain copies: 2;2;2;2; label: 5' 6-FAM; tRNA cloverleaf
T2 sequence 1: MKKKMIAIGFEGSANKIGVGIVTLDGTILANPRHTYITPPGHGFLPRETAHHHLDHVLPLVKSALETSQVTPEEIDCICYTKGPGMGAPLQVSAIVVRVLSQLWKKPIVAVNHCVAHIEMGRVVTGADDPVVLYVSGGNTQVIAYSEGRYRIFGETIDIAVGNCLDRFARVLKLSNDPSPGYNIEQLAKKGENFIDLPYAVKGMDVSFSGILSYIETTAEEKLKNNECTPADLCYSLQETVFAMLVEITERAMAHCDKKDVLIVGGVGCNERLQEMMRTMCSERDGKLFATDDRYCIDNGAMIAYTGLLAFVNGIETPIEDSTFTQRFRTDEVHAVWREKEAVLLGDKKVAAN
T2 sequence 2: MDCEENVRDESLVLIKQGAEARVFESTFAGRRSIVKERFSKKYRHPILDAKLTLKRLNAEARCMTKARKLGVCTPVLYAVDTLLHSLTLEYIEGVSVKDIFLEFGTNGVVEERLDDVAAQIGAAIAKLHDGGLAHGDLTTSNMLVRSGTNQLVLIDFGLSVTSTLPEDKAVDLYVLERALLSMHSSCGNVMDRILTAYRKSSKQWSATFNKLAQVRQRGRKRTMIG
T2 sequence 3: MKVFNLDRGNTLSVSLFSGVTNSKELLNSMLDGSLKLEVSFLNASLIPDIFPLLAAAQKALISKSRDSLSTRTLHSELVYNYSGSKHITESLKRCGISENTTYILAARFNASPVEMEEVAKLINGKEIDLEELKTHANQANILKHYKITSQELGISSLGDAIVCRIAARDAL
T2 sequence 4: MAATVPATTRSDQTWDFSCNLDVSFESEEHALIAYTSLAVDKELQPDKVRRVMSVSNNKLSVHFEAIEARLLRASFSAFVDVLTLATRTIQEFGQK

[2] = molecular target: T3, KAE1;BUD32;CGI121;PCC1 R70D/R73D/A74E (Arabidopsis thaliana;Arabidopsis …, UniProt O49653;Q94K14;Q6NMZ4;Q8GWD7 1-353;1-226;1-172;1-96, |||R70D;R73D;A74E); test: MST; KEOPS monomer; MST: 20 mM PBS pH 7.5, 300 mM NaCl, 0.05% Tween 20, 25 C, 50 nM RNA; EMSA: 20 mM Tris-HCl pH 7.5, 300 mM NaCl, 5 mM b-mercaptoethanol, 20% glycerol, agarose gel in Tris-glycine pH 8.0 (8.5 for FAM-RNA), 4 C; conditions: protein: recombinant;recombinant;recombinant;recombinant; tags: none (6His on partner PCC1);none (6His on partner CGI121);6His (C-term);6His (C-term); chain copies: 2;2;2;2; label: 5' 6-FAM; tRNA cloverleaf
T3 sequence 1: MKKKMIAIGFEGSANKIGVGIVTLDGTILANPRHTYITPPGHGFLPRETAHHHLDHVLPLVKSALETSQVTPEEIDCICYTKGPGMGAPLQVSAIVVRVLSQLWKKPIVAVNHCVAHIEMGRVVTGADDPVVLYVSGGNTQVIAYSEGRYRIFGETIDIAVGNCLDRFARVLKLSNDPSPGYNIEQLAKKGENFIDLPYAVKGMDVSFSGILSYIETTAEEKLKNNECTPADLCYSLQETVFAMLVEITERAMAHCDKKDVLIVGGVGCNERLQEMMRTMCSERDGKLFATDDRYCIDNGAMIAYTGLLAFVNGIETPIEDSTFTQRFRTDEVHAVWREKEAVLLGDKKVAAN
T3 sequence 2: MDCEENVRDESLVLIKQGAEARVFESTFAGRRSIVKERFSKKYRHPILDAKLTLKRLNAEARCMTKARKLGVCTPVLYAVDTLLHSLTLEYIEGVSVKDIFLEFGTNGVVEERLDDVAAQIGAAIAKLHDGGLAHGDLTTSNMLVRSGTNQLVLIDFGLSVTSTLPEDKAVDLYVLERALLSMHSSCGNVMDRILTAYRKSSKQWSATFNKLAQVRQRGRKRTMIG
T3 sequence 3: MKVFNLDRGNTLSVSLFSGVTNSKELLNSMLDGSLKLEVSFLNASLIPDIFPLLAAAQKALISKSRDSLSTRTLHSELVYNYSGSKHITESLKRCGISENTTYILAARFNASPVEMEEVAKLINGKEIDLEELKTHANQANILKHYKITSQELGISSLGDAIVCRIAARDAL
T3 sequence 4: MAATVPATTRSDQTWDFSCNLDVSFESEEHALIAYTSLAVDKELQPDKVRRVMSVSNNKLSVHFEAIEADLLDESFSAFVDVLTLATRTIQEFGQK

[3] = molecular target: T4, KAE1;BUD32;CGI121;PCC1 R73D (Arabidopsis thaliana;Arabidopsis …, UniProt O49653;Q94K14;Q6NMZ4;Q8GWD7 1-353;1-226;1-172;1-96, |||R73D); test: MST; Fig S4 legend gives ~372; MST: 20 mM PBS pH 7.5, 300 mM NaCl, 0.05% Tween 20, 25 C, 50 nM RNA; EMSA: 20 mM Tris-HCl pH 7.5, 300 mM NaCl, 5 mM b-mercaptoethanol, 20% glycerol, agarose gel in Tris-glycine pH 8.0 (8.5 for FAM-RNA), 4 C; conditions: protein: recombinant;recombinant;recombinant;recombinant; tags: none (6His on partner PCC1);none (6His on partner CGI121);6His (C-term);6His (C-term); chain copies: 2;2;2;2; label: 5' 6-FAM; tRNA cloverleaf
T4 sequence 1: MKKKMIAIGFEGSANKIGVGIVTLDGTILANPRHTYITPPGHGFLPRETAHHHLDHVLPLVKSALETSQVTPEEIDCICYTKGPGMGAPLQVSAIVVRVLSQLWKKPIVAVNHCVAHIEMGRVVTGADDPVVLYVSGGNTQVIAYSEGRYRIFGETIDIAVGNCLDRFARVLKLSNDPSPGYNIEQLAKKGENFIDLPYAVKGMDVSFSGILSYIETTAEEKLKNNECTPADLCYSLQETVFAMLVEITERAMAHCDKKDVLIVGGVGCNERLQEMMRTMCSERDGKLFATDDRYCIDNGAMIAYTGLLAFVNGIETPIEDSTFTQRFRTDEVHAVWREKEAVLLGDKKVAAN
T4 sequence 2: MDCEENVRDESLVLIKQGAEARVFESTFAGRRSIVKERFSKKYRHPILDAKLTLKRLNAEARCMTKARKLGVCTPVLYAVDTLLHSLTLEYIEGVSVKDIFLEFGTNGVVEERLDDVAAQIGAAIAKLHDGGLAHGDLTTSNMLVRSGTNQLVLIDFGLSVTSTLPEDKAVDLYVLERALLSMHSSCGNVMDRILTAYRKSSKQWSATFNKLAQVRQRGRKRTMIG
T4 sequence 3: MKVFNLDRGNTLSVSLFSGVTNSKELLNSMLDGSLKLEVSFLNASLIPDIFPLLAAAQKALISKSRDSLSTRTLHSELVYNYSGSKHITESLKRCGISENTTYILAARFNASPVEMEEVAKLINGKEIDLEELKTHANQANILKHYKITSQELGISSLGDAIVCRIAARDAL
T4 sequence 4: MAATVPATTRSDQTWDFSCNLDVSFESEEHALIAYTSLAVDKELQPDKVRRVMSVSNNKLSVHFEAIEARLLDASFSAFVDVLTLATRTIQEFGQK

B1: 5'-6FAM-tRNAArgCCU (structured_RNA)
RNA: GCGCCUGUAGCUCAGUGGAUAGAGCGUCUGUUUCCUAAGCAGAAGGUCGUAGGUUCGACCCCUACCUGGCGCGCCA
Question: Does B1 bind [1]?
Answer: binds

Question: What about the Kd (KAE1;BUD32;CGI121;PCC1) of the same binder?
Answer: 18.1 ± 3.87 µM

Question: What about the Kd [2] of the same binder?
Answer: 74.4 ± 13.5 µM

Question: And the Kd [3]?
Answer: 353 ± 40 µM
